According to publication PMC7948479, “Allostery in the nitric oxide dioxygenase mechanism of flavohemoglobin” (The Journal of Biological Chemistry, 2020):

How the values were obtained:
Ngb = Ngb reductase activity; format: biochemical, murine; conditions: 37 °C; 5 μM Ngb; anaerobic
Source text: Reagents were purchased from Sigma-Aldrich Chemical Co (St Louis, MO, USA) unless otherwise stated. DNA primers were synthesized at the University of Cincinnati Medical Center DNA facility. Praxair (Bethlehem, PA, USA) was the supplier of 99.993% O2, 99.999% CO, and 99.98% N2. Bovine liver catalase (260,000 U/ml) was obtained from Roche Applied Science. Recombinant rat cytochrome b5 (soluble form) and murine Ngb were expressed in E. coli and purified essentially as described ([10], [70]). NADH purity (≥95%) was assessed by the ratio of the 340 to 260 nm absorbance with a value of 0.437 equal to 100% reduced.

TMAO reductase activity = format: biochemical; conditions: 37 °C; 400 mM TMAO; anaerobic
Experimental: NADH oxidase activity was followed spectrophotometrically at 340 nm in a 1.0-ml cuvette containing 90 mM Tris chloride buffer, pH 8.2, 100 μM NADH, 200 μM O2, 0.1 μM FAD, 100 μg/ml BSA, and 0.3 mM EDTA and incubated at 37 °C. […] TMAO reductase activity was assayed by following the absorbance decrease at 340 nm in a 1.0-ml anaerobic reaction containing 12 U Aspergillus niger glucose oxidase, 5 mM glucose, 260 U catalase, 400 mM TMAO, 100 μM NADH, 0.1 μM FAD, 100 μg/ml BSA, and 0.3 mM EDTA in 90 mM Tris chloride pH 8.2 and incubated at 37 °C. […] Methyl viologen reductase activity was assayed by following the formation of the blue cation radical at 603 nm and by applying an extinction coefficient of 13,300 M^−1 cm^−1 in a 1.0-ml anaerobic reaction buffered with 10 mM potassium phosphate, pH 7.0, and containing 12 U glucose oxidase, 5 mM glucose, 260 U catalase, 100 μM NADH, 0.1 μM FAD, 100 μg/ml BSA, 0.3 mM EDTA, and 200 mM sodium chloride and incubated at 37 °C. NO reductase activity was assayed amperometrically at 37 °C in a 1.0-ml anaerobic reaction containing 2 μM NO, 100 μM NADH, 0.1 μM FAD, 12 U glucose oxidase, 5 mM glucose, 260 U catalase, 100 μg/ml BSA, and 0.3 mM EDTA buffered with 10 mM potassium phosphate pH 7.0. CO effects were tested at a final concentration of 50 μM as diluted from a 1 mM stock in water. […]

anaerobic E. coli = test system: anaerobic E. coli; set-up: method as in PMID 11751864; conditions: cited from earlier work
E. coli flavoHb-NOD = E. coli flavoHb-NOD (Escherichia coli, UniProt P24232); conditions: read-out: theoretical Km(O2) (Vmax/k'O2); cited from earlier work
E. coli flavoHb = E. coli flavoHb (Escherichia coli, UniProt P24232); conditions: cited from earlier work

B1: WT: wild-type E. coli flavohemoglobin (flavoHb), an NO dioxygenase (NOD) (protein, UniProt P24232 1-396, looked up)
Flavohemoprotein: MLDAQTIATVKATIPLLVETGPKLTAHFYDRMFTHNPELKEIFNMSNQRNGDQREALFNAIAAYASNIENLPALLPAVEKIAQKHTSFQIKPEQYNIVGEHLLATLDEMFSPGQEVLDAWGKAYGVLANVFINREAEIYNENASKAGGWEGTRDFRIVAKTPRSALITSFELEPVDGGAVAEYRPGQYLGVWLKPEGFPHQEIRQYSLTRKPDGKGYRIAVKREEGGQVSNWLHNHANVGDVVKLVAPAGDFFMAVADDTPVTLISAGVGQTPMLAMLDTLAKAGHTAQVNWFHAAENGDVHAFADEVKELGQSLPRFTAHTWYRQPSEADRAKGQFDSEGLMDLSKLEGAFSDPTMQFYLCGPVGFMQFTAKQLVDLGVKQENIHYECFGPHKVL
In the case of B1, the Ngb reductase activity (Ngb) is listed as 0.20 s⁻¹, the TMAO reductase activity (TMAO reductase activity) is listed as 0.21 s⁻¹ and the NO metabolic activity (anaerobic E. coli) is listed as “insignificant NO metabolic activity”. The Km (E. coli flavoHb-NOD) was about 2 µM and the kET previously reported (E. coli flavoHb) was 136 s⁻¹.
